Measurements taken from the DeepSol protein solubility set.

assay: soluble on expression in E. coli; label from the status in PepcDB or PDB records

Row | Sequence | soluble on expression in E. coli
1 | MAHHHHHHMSENLDRYDAYRLFCISAAAVNGDEDELQDRLGIVEEYLTEYEGLCRAFHKAQRTTHAQEIRRLLADEAEERRFLKEDADSLPWKLFINMSFACAQELVVEHERKMRQGIVAAYTASFTELLFPYETLQRMRLTWEALDSLALKACIVGRYGVREGQLARTSIPGYTAGSTFPPSARAAAAADAVRSLLAEEHQERQEMIEARGQHVAAALLILASSEKFRSFASASVCGMGFLPQLRNNLASTARQALDNSATRIQSAYRGYRVRAVRARS | not soluble
2 | MAHHHHHHMSFCDFVVVTNNSVEIFKISFDNLIITPIKKHFIKSKHCWYDEKSSYICLLSANKSNVILPYLLSNNNVIKLSKIELNILKNDNINKNDIEIITLYNETYCIHKDFKNGRISFRCLSSTIYFDYVLDLFYNGVIETFSLDNLFGVFNHTNQYVYLFDIKYNKKKTTIHSFDDNNNHTINISYLTTPKQFKTQINFNHMAFEPYNLLIDNHYGNVYKVKVDYDVLMLQICQHFSNLVRT | soluble
3 | MAHHHHHHMSGRAGRRGLDRVGVVIAMVDEAVEPETLKQLTGGGADVLNSSFHLTYNMVLNLLRVEDVDPEFMMHRSFAQFQRLRNRPVLEKRAEALTEEIESIHVEHEEVFRQFTLCQELLANRRKQLADILKQPTFLKRFTHSGRLLRIRRAADDVLFNWGICRAFHAKVPNADPKSPSEFSVDVAVICLKANAAKPTSLLPCHVNDFTTSTADLYTLTFDFTDIEGVARFRVNLPAEPDTESGRAQMVQTLSKLHRQYDDKVPLLTAEEMGVDDPQFEKLRVQVERLEAQLAENEFVQNPTKELESDFERFTHRAKLEKELNDIREELNQASRAIFSEELKQMMRVLRRLDYIDKDNVILRKARVACEITTTDENEILLTELLFKGVLNSMETEMIVALMSCLVNVHRTPDGFSLPEEFQQPLKELNEIVSRIATVSIESGVLQEGGVGVERTMPSLMEVTYMWAKGAKFVDIMSKTSAYEGEIVRMMRRLEEQLRQMAGAARSPAIGSMELHDKFLKGIQLIKRDIVFVSSLYL | not soluble
4 | MAHHHHHHMSHIYDMLGINVEKLKTKKKQKEKISKKQLNFLKDNDNLFSLPTTSKIISLNNKNVSVWRLVKFRSKCRNDDLILTKWSKIGYKNDKKEFNEDKIEDDNTFEKFNKKINIIKYNDDLYYREIQPLNTGWTKEETDYLFNLCEKYDCHFIIVNDVYDIKYKRTIEEIKERFYTVTKKVMEDKFDQQIKLEEAKKIKNNNDILKLKEAKAKHPLIKFTYNMQADLERKNIIHKTYTVSKKDVMLEETTLENIKKFESKIKLELKKAADMKKLKKKFELTTEEIVPITKLPEEDKEAKNIYSARYYFQKLKIDISYFDKLDIYLKENNIEKPTIYTENICFLYGVLRTDVAILLNLRKKIEKLKQEREFWKGQMNNLEEEYLKKQQKT | not soluble
5 | MAHHHHHHMSISVRIRTPKSSTPEQVELNSSGTWGEAAVLLSRKSEVALERLRVLAGFPPKAVDLAADSPLSALKLRANDMLIVQEGEAKVQLGNTGERYVPPAPERAHLTRRRCPADNSCLFHACAYVLRDKSRTEGPQLRQECVQAVLDHPEMFNVNTLGMDPLAYASWLSQKDTWGGAIELEILSFLYKTEMFALDLQSVTVQRFGTGLGYTVRAFLVYTGNHYDCIAMNPVYNSASEREDQTLFSSRDENVLVRAKRFVAEEGQKMKEGKAT | soluble
6 | MAHHHHHHMSKEKLAKEKIEKGQHYEAHQLIKSLINRKLQKNQVSSCMSIIFYFSQKMAKAEQYVLLCDLMYQCCTILTQHNIKFSEEYAKKIIEIFNLCPPNSTEEKYKFMNKCILWSTNDDEIFGYLDFHKAIAYAYFEDKKYSLAHNHFIYLEDNEILYKIICLWQKEGYPSESDFFILRTTLCLLVLDKFEQALDLINKFEPNLDRKDVPLPVQIAYLITCSCIYRSAPLYEDVKYKYRLILNYDPDFQKYIGILDDVLFNKRKHDLFSMFQNIFG | not soluble
7 | MAHHHHHHMSLPASHTTTPATASPEVLLAACTAEVQQLRDALHEVTLRERDGCSGSRGGTGGVAGGALGDVWEGKYLAMIRKNRDLTVQLGTTQQQLAAAQKALQAEQEKTQRLVAAVTVSSLGARGAKAGSKSAAGAAGVDDGCNSNSGSKSGGGSSGSEGAAAASSAAVARVYDKLHQKQLAMAEVQRENVALRSLIQREVGLRDDTKEVNRLLRRATAVSSNGGSAAAAAGGTSASGADGGGWRGRAEEIVLLKSKLKDAQREVEEMAAAQSSSENGTDACTDPLSLPASVRAFLGASGDPAAEARSVVTTTTAQVRRPRRDVDDDARDRLSAMQQQRAAQQRQLAADLAELQQQLNEERMRSSALQARTKTMKSELDTLRSYVDTILEKSSTDDELVEAYKTELQRAHEEARHWRRVAADALKEAGGGKTSAALTVSGVHNGLNNAAAAAVRTAPYRKAAGDEKAVAAGGGDAGNVRGAPLPLPPPQPLTSFSRSLYEWVCQACDEVPEGKEQERTEPAVAASAKQLAAVLRQAFQHLVLVEQHTVAGNDMGHASTDSASSESILLKENAALKTRIRALSELMEKELQAQRVLWATAAAGAGATPSTETKERERQQ | not soluble
8 | MAHHHHHHMSLTDIEEAETVELLSEDSCSTMSASSEDVGATTVDTSLPLTANATEEQLRRRMLHECACIPELRPQPAWLEESGAAGDGPSASTTEMNWDVAHADHLVVAVRWRVAPTSPGTGCPSLHTTPWVPYAVPLAKVIASRTMAATDTASTVTSTTSSSGGGSSATVQPLGSVQLPLGRSMFLLAAQRSSLVPRAWDSGVAAESLVNVAASISRAQCTLHLHYAAAKTPQAPSSLRTRPVCRSFDVFAISPTTALLGIALQPHQRYHIKRKRGTGKSAHASEDQPCDANGVLTLRVGPYCHVDVALDELPSEPRVSGSAGTCPSITINTYNGRHAHTTRSGQTQDSPAVHRTSACRSGVAREPPAAAMQLQHGSTASLITGDSTAVLATLSEMSDHVALSETSGHEHDGPVVAGSQEVAAAPSHTSITGSLKRRRPAAARGRAAEAVVRRVGNAEAAEGGDVDEADAAVSHSVTTTPSEIVLFTTGMRLSDAEEKTLKELGALVNPHLRLARYARVLAAQRPLVRSVKLLTVLPYVQDVVHQSWLDAVLRTRSLDLPLEGFAYKERKLAGSIESENSFDLRETMRKAPTERQRLFAQQHFWVHKSATPQEPPMNDLKTVVAASGGIITRCVLDADVLVLPKHKPTLSCWRGIAQQLGGTGRASTSSASASTTPTLAQRKQAGVLFVVPDDIFKCVLQQRRLSASSVTLPWQLLTEAAAARGTTGAARVGRRPSQPTRKTPRASTTQRSPRRKSCKRSQ | soluble
9 | MAHHHHHHMSPVLVPTACEDWSLNIDDESAKRFWWNNTYSITLWEETLNIEQQAEKITDGDVWSKFIDLQLRCAFKICSICHSPEGNADMKICCYCGNTVHENCSEPAAPEQIMWKPANLAYVEHMRACFQCQAVNYKEPL | not soluble
10 | MAHHHHHHMSPYEYLFKYIIIGDTGVGKSCLLLQFTDKRFRADHDLTIGVEFGARLINLDNKQIKLQIWDTAGQESFRSITRSYYRGAAGALLVYDITRRETFNHLNRWLDEVRQNSNPHMAIILVGNKCDLERREVSAEEGAQFARQNGLIFLETSAKTAKNVEEAFLYTARKIYDNILEDVYDLSNESYGIKYGPNSQYSRVKLDIPSMPESRSGFSCC | soluble
11 | MAHHHHHHMSSDDECPELISARVPVTVLTGFLGSGKTTLLHYILSADHDMRIAVIVNEFEFGKTIEKGLTLKSSEKPDDEWLELNNGCMCCTAQTQTVKALESLMEHRGTFDLILVETSGLADPGPIAAMFWQDLPLCGHLYLSGIVTLVDAVNICRYLDDEDVMREAERQILMADKVVLNKCDIATEAQQKAALAAVREINPVATVIPSDHSRVPNLRDILFIDTTRAATELVHLHEHHHSSISAVSLEFFEAERAFAVSSYRDVHAIGSDLLYRCGDYGFEVVRCKAAIWCCEDGQYRLLQLQSIGDLFDVTPMVGQSVPFGCTRALVLGKQLDEVKLRDIFAKYLKATK | not soluble
12 | MAHHHHHHMSSIKINKDESKRVHIWIKSAIGTPNRRQFKHKNIMYPYFRMYKSPYRARDSRTRQAFWPCVDKYPWHTHQKRWVDIEQLNLKFFSEFTNKDPSRKNLFETCHTLPFNGINCLFWNPIYLNSHKFFLKKNKKDANRGEDNNMEENDDVKENTIEGNDDVKEHAIEGYTNNNVNNHNDIINQYDENKKVIKINDFHYIVDKDVKNNTYFYLKYIKYSMRPFRGKLIGDIYLNQTKIRHNISAKGFVNGEWKYSYPHININKKIEHISLNNNLTSNDIYSNNINNLVIVDKYTYRPPLPKSYIFQKDIL | not soluble
13 | MAHHHHHHMSTSRPAAVLHAASDDEKEDDPMAVLWQHERHVLVLTRAGKPIFSQHGHEEQLSPLCALLQVLLCIHEDKGGGDEQSRGPSQPAPRSDGTASSAAVKDELHQVVYYRSKSASGQACHQGDVNAQVQALTLFFYVQGDLIYLMSVRSVAPSLPAGAVEMSNAEGECEPPPLASYCLAQLRHVHHCILLVLPTVNTLLTRSPGLDVMAMYTSADRAALRELIESYQTELTYAVGAVATLALSVEKRRVVERALLCCYRSCADAAVGPPAHQLFSFLYFKNYLVAAVGPPETYAADPKVSVSAPLALGPDTALCGCLHVDDALLLYRYARSLVSRQLGEAWVPVCLPRFNSTGYLWCYAVNFTRYARELRKQQGKTEWPKVWEEHTELDIMLLHVSASQDDFAALSRSTRRFAQILCAPAVEDNFYYRLEEELYYRTPAPLTELLPSSHTSVSTCSSRDLSGYTDGVPVVVWRGHSRQ | not soluble
14 | MAHHHHHHMSTYANSQARLNRVAPQLRPAGVHGDWTEATMAELLSSYNPNGIITPDHIRSFHHRGCDVGEQRRHWGLAKDAPVDPNMRHGVKGKETGGADACLRPEMYADKMTALLDAQLESQYLSNRRKPLGHAPVPRDPVPVPFGGFGITQKKGDSTQSVLAGYRSVDVLHPAGEQLTRNYDWEKAGIDPTQHRFGKPSARSDGTTAAALFNDSATQLTSKLAKDYETTVAKELGKSKRYGFDDPAEWDEEKRGSVTKFGATGTAASYFQTEQPTVRELLSSWAQTASGPRADKAASGKAGQQGLTGSADSAVTAKADASAAAPVASGPSLTEPLKDEARAHQLLYPCHYVSLGVESKYFAGGRPLEDIRRLCHKCSFGLSDADIDAVFVLVAKGGSTCSIEEFKNAARARGYM | not soluble
15 | MAHHHHHHMSVCARALWQRSRLLCRCLIMCPTPLSTARWRAGHGWLSRKRGDAEAPPSRERRRHPHANTRHSHAHMMALTLDPRWNAMRRGIAGIGVCAVDGRGGAAAPGSCRLSLCSCLSPASSGGCGGADSALSEGGHCRECVCGMRGRLPSPKKPWNSLAGVLVGVRVTHAASVLEDRPVALGRLVSRLSEAAYKAEMLRTGKRDRDGEDRRGDAAQLLVVDAGTRVTVRTEGDPASGAAVAPSAMHMKGTIAKVNGNATYIILMEKGEVELSVASERIVALQPRKKLFQSARLVALV | soluble
16 | MAHHHHHHMTERSPALVPAVSLLREELQLLNGVVEGQARSRVYRHHIFFRKASFLRSALRNALPQFARRAADPTDLRTVAGRLLTLTIRCAESATLELSASHIDTVSVALLLLAITSRIGCVLCVVLGRKPETFGKLHFIGSKFGVKYKRSRSEAELAEETIGVATPIRRRTIGGVIEAVIK | not soluble
17 | MAHHHHHHMTNKKKMSNSETGGTRCVYVLSDIDGFKYRLVMEGDVRLLTTSKLKRYLQNATGLSAQQQELSFRGRVMQDGECGGDVGLVDGAVLQLRHVKGMRRTNSGDGRRVNRLPSSSMSMGGVAHRGRSSVVDAASCASPTAGLLTPLQGSHPRDGQNGGEAFTSPPPREMNYRSKRMGREAHALEIENARLEERLLEMERRLANASSDWRLQEEIEQLKGIIAQLLREKEAVGRSAEEKWRAKEEELVKELDLMREERRRLHREQTLFEEEQRALVRSLEEQVRSQQQRLLEQGTTITQQTRQRQPAMNVAEKVEKSLKQLSLELNIPQLHLDDNDTCVLPLGDGTNILVTLDTITERLFMYAVIANSLPSNAGKRLELFEMLLEGALLGRDMATGGVGVCLRNELIIMNVCVDIVHADEYALASIARPFMESVQHWSEAVKKMMPEKKN | not soluble
